From publication PMC11533527, “A yeast two-hybrid system to obtain triple-helical ligands from combinatorial random peptide libraries” (The Journal of Biological Chemistry, 2024)
Residue numbers refer to the chain shown, from its start. Names and notes keep the numbering of the source.

B1: synthetic triple-helical peptide pepfreq (peptide)
chain: YPPGPPGPPGPPGPRGRRGLHGLPGPPGPPGPPGPPG
HELM: PEPTIDE1{Y.P.[Hyp].G.P.[Hyp].G.P.[Hyp].G.P.[Hyp].G.P.R.G.R.R.G.L.H.G.L.[Hyp].G.P.[Hyp].G.P.[Hyp].G.P.[Hyp].G.P.[Hyp].G.[am]}$$$$V2.0; N-terminus assumed
SMILES: CC(C)C[C@H](NC(=O)CNC(=O)[C@H](CCCNC(=N)N)NC(=O)[C@H](CCCNC(=N)N)NC(=O)CNC(=O)[C@H](CCCNC(=N)N)NC(=O)[C@@H]1CCCN1C(=O)CNC(=O)[C@@H]1C[C@@H](O)CN1C(=O)[C@@H]1CCCN1C(=O)CNC(=O)[C@@H]1C[C@@H](O)CN1C(=O)[C@@H]1CCCN1C(=O)CNC(=O)[C@@H]1C[C@@H](O)CN1C(=O)[C@@H]1CCCN1C(=O)CNC(=O)[C@@H]1C[C@@H](O)CN1C(=O)[C@@H]1CCCN1C(=O)[C@@H](N)Cc1ccc(O)cc1)C(=O)N[C@@H](Cc1c[nH]cn1)C(=O)NCC(=O)N[C@@H](CC(C)C)C(=O)N1C[C@H](O)C[C@H]1C(=O)NCC(=O)N1CCC[C@H]1C(=O)N1C[C@H](O)C[C@H]1C(=O)NCC(=O)N1CCC[C@H]1C(=O)N1C[C@H](O)C[C@H]1C(=O)NCC(=O)N1CCC[C@H]1C(=O)N1C[C@H](O)C[C@H]1C(=O)NCC(=O)N1CCC[C@H]1C(=O)N1C[C@H](O)C[C@H]1C(=O)NCC(N)=O
notes: guest made of the residue most frequent at each position in the selection; Triple helix by CD; annealed before use; source: synthetic peptide (Fmoc solid phase, RP-HPLC purified)
B2: synthetic triple-helical peptide pep11 (peptide)
chain: B1 chain with R15V, H21S
HELM: PEPTIDE1{Y.P.[Hyp].G.P.[Hyp].G.P.[Hyp].G.P.[Hyp].G.P.V.G.R.R.G.L.S.G.L.[Hyp].G.P.[Hyp].G.P.[Hyp].G.P.[Hyp].G.P.[Hyp].G.[am]}$$$$V2.0; N-terminus assumed
SMILES: CC(C)C[C@H](NC(=O)CNC(=O)[C@H](CCCNC(=N)N)NC(=O)[C@H](CCCNC(=N)N)NC(=O)CNC(=O)[C@@H](NC(=O)[C@@H]1CCCN1C(=O)CNC(=O)[C@@H]1C[C@@H](O)CN1C(=O)[C@@H]1CCCN1C(=O)CNC(=O)[C@@H]1C[C@@H](O)CN1C(=O)[C@@H]1CCCN1C(=O)CNC(=O)[C@@H]1C[C@@H](O)CN1C(=O)[C@@H]1CCCN1C(=O)CNC(=O)[C@@H]1C[C@@H](O)CN1C(=O)[C@@H]1CCCN1C(=O)[C@@H](N)Cc1ccc(O)cc1)C(C)C)C(=O)N[C@@H](CO)C(=O)NCC(=O)N[C@@H](CC(C)C)C(=O)N1C[C@H](O)C[C@H]1C(=O)NCC(=O)N1CCC[C@H]1C(=O)N1C[C@H](O)C[C@H]1C(=O)NCC(=O)N1CCC[C@H]1C(=O)N1C[C@H](O)C[C@H]1C(=O)NCC(=O)N1CCC[C@H]1C(=O)N1C[C@H](O)C[C@H]1C(=O)NCC(=O)N1CCC[C@H]1C(=O)N1C[C@H](O)C[C@H]1C(=O)NCC(N)=O
notes: Triple helix by CD; annealed before use; source: synthetic peptide (Fmoc solid phase, RP-HPLC purified)
B3: synthetic triple-helical peptide pep10 (peptide)
chain: B1 chain with R17P, L20F, H21T, L23F
HELM: PEPTIDE1{Y.P.[Hyp].G.P.[Hyp].G.P.[Hyp].G.P.[Hyp].G.P.R.G.P.R.G.F.T.G.F.[Hyp].G.P.[Hyp].G.P.[Hyp].G.P.[Hyp].G.P.[Hyp].G.[am]}$$$$V2.0; N-terminus assumed
SMILES: C[C@@H](O)[C@H](NC(=O)[C@H](Cc1ccccc1)NC(=O)CNC(=O)[C@H](CCCNC(=N)N)NC(=O)[C@@H]1CCCN1C(=O)CNC(=O)[C@H](CCCNC(=N)N)NC(=O)[C@@H]1CCCN1C(=O)CNC(=O)[C@@H]1C[C@@H](O)CN1C(=O)[C@@H]1CCCN1C(=O)CNC(=O)[C@@H]1C[C@@H](O)CN1C(=O)[C@@H]1CCCN1C(=O)CNC(=O)[C@@H]1C[C@@H](O)CN1C(=O)[C@@H]1CCCN1C(=O)CNC(=O)[C@@H]1C[C@@H](O)CN1C(=O)[C@@H]1CCCN1C(=O)[C@@H](N)Cc1ccc(O)cc1)C(=O)NCC(=O)N[C@@H](Cc1ccccc1)C(=O)N1C[C@H](O)C[C@H]1C(=O)NCC(=O)N1CCC[C@H]1C(=O)N1C[C@H](O)C[C@H]1C(=O)NCC(=O)N1CCC[C@H]1C(=O)N1C[C@H](O)C[C@H]1C(=O)NCC(=O)N1CCC[C@H]1C(=O)N1C[C@H](O)C[C@H]1C(=O)NCC(=O)N1CCC[C@H]1C(=O)N1C[C@H](O)C[C@H]1C(=O)NCC(N)=O
notes: as for B2
B4: synthetic triple-helical peptide pep5 (peptide)
chain: B1 chain with R17P, H21T, L23F
HELM: PEPTIDE1{Y.P.[Hyp].G.P.[Hyp].G.P.[Hyp].G.P.[Hyp].G.P.R.G.P.R.G.L.T.G.F.[Hyp].G.P.[Hyp].G.P.[Hyp].G.P.[Hyp].G.P.[Hyp].G.[am]}$$$$V2.0; N-terminus assumed
SMILES: CC(C)C[C@H](NC(=O)CNC(=O)[C@H](CCCNC(=N)N)NC(=O)[C@@H]1CCCN1C(=O)CNC(=O)[C@H](CCCNC(=N)N)NC(=O)[C@@H]1CCCN1C(=O)CNC(=O)[C@@H]1C[C@@H](O)CN1C(=O)[C@@H]1CCCN1C(=O)CNC(=O)[C@@H]1C[C@@H](O)CN1C(=O)[C@@H]1CCCN1C(=O)CNC(=O)[C@@H]1C[C@@H](O)CN1C(=O)[C@@H]1CCCN1C(=O)CNC(=O)[C@@H]1C[C@@H](O)CN1C(=O)[C@@H]1CCCN1C(=O)[C@@H](N)Cc1ccc(O)cc1)C(=O)N[C@H](C(=O)NCC(=O)N[C@@H](Cc1ccccc1)C(=O)N1C[C@H](O)C[C@H]1C(=O)NCC(=O)N1CCC[C@H]1C(=O)N1C[C@H](O)C[C@H]1C(=O)NCC(=O)N1CCC[C@H]1C(=O)N1C[C@H](O)C[C@H]1C(=O)NCC(=O)N1CCC[C@H]1C(=O)N1C[C@H](O)C[C@H]1C(=O)NCC(=O)N1CCC[C@H]1C(=O)N1C[C@H](O)C[C@H]1C(=O)NCC(N)=O)[C@@H](C)O
notes: as for B2
B5: synthetic triple-helical peptide pep7 (peptide)
chain: B1 chain with R15K, L20F
HELM: PEPTIDE1{Y.P.[Hyp].G.P.[Hyp].G.P.[Hyp].G.P.[Hyp].G.P.K.G.R.R.G.F.H.G.L.[Hyp].G.P.[Hyp].G.P.[Hyp].G.P.[Hyp].G.P.[Hyp].G.[am]}$$$$V2.0; N-terminus assumed
SMILES: CC(C)C[C@H](NC(=O)CNC(=O)[C@H](Cc1c[nH]cn1)NC(=O)[C@H](Cc1ccccc1)NC(=O)CNC(=O)[C@H](CCCNC(=N)N)NC(=O)[C@H](CCCNC(=N)N)NC(=O)CNC(=O)[C@H](CCCCN)NC(=O)[C@@H]1CCCN1C(=O)CNC(=O)[C@@H]1C[C@@H](O)CN1C(=O)[C@@H]1CCCN1C(=O)CNC(=O)[C@@H]1C[C@@H](O)CN1C(=O)[C@@H]1CCCN1C(=O)CNC(=O)[C@@H]1C[C@@H](O)CN1C(=O)[C@@H]1CCCN1C(=O)CNC(=O)[C@@H]1C[C@@H](O)CN1C(=O)[C@@H]1CCCN1C(=O)[C@@H](N)Cc1ccc(O)cc1)C(=O)N1C[C@H](O)C[C@H]1C(=O)NCC(=O)N1CCC[C@H]1C(=O)N1C[C@H](O)C[C@H]1C(=O)NCC(=O)N1CCC[C@H]1C(=O)N1C[C@H](O)C[C@H]1C(=O)NCC(=O)N1CCC[C@H]1C(=O)N1C[C@H](O)C[C@H]1C(=O)NCC(=O)N1CCC[C@H]1C(=O)N1C[C@H](O)C[C@H]1C(=O)NCC(N)=O
notes: as for B2
B6: synthetic triple-helical peptide pepα1(I)930-938: H-Tyr-(Pro-Hyp-Gly)4-Pro-Lys-Gly-His-Arg-Gly-Phe-Ser-Gly-Leu-Hyp-Gly-(Pro-Hyp-Gly)4-NH2 (peptide)
chain: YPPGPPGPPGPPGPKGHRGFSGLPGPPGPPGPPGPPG
modifications: 4-hydroxyproline (Hyp, written P in letters) at positions 3, 6, 9, 12, 24, 27, 30, 33, 36 of the chain (counted from the printed formula); C-terminal amide
notes: Tyr-(Pro-Hyp-Gly)4-Pro host; Hyp-Gly-(Pro-Hyp-Gly)4 host; Triple helix by CD; annealed before use; source: synthetic peptide (Fmoc solid phase, RP-HPLC purified)
B7: synthetic triple-helical peptide pep6 (peptide)
chain: B1 chain with R15N, L20F, H21M, L23M
HELM: PEPTIDE1{Y.P.[Hyp].G.P.[Hyp].G.P.[Hyp].G.P.[Hyp].G.P.N.G.R.R.G.F.M.G.M.[Hyp].G.P.[Hyp].G.P.[Hyp].G.P.[Hyp].G.P.[Hyp].G.[am]}$$$$V2.0; N-terminus assumed
SMILES: CSCC[C@H](NC(=O)[C@H](Cc1ccccc1)NC(=O)CNC(=O)[C@H](CCCNC(=N)N)NC(=O)[C@H](CCCNC(=N)N)NC(=O)CNC(=O)[C@H](CC(N)=O)NC(=O)[C@@H]1CCCN1C(=O)CNC(=O)[C@@H]1C[C@@H](O)CN1C(=O)[C@@H]1CCCN1C(=O)CNC(=O)[C@@H]1C[C@@H](O)CN1C(=O)[C@@H]1CCCN1C(=O)CNC(=O)[C@@H]1C[C@@H](O)CN1C(=O)[C@@H]1CCCN1C(=O)CNC(=O)[C@@H]1C[C@@H](O)CN1C(=O)[C@@H]1CCCN1C(=O)[C@@H](N)Cc1ccc(O)cc1)C(=O)NCC(=O)N[C@@H](CCSC)C(=O)N1C[C@H](O)C[C@H]1C(=O)NCC(=O)N1CCC[C@H]1C(=O)N1C[C@H](O)C[C@H]1C(=O)NCC(=O)N1CCC[C@H]1C(=O)N1C[C@H](O)C[C@H]1C(=O)NCC(=O)N1CCC[C@H]1C(=O)N1C[C@H](O)C[C@H]1C(=O)NCC(=O)N1CCC[C@H]1C(=O)N1C[C@H](O)C[C@H]1C(=O)NCC(N)=O
notes: as for B2
B8: synthetic triple-helical peptide pep3 (peptide)
chain: B1 chain with R17H, L20F, H21L
HELM: PEPTIDE1{Y.P.[Hyp].G.P.[Hyp].G.P.[Hyp].G.P.[Hyp].G.P.R.G.H.R.G.F.L.G.L.[Hyp].G.P.[Hyp].G.P.[Hyp].G.P.[Hyp].G.P.[Hyp].G.[am]}$$$$V2.0; N-terminus assumed
SMILES: CC(C)C[C@H](NC(=O)[C@H](Cc1ccccc1)NC(=O)CNC(=O)[C@H](CCCNC(=N)N)NC(=O)[C@H](Cc1c[nH]cn1)NC(=O)CNC(=O)[C@H](CCCNC(=N)N)NC(=O)[C@@H]1CCCN1C(=O)CNC(=O)[C@@H]1C[C@@H](O)CN1C(=O)[C@@H]1CCCN1C(=O)CNC(=O)[C@@H]1C[C@@H](O)CN1C(=O)[C@@H]1CCCN1C(=O)CNC(=O)[C@@H]1C[C@@H](O)CN1C(=O)[C@@H]1CCCN1C(=O)CNC(=O)[C@@H]1C[C@@H](O)CN1C(=O)[C@@H]1CCCN1C(=O)[C@@H](N)Cc1ccc(O)cc1)C(=O)NCC(=O)N[C@@H](CC(C)C)C(=O)N1C[C@H](O)C[C@H]1C(=O)NCC(=O)N1CCC[C@H]1C(=O)N1C[C@H](O)C[C@H]1C(=O)NCC(=O)N1CCC[C@H]1C(=O)N1C[C@H](O)C[C@H]1C(=O)NCC(=O)N1CCC[C@H]1C(=O)N1C[C@H](O)C[C@H]1C(=O)NCC(=O)N1CCC[C@H]1C(=O)N1C[C@H](O)C[C@H]1C(=O)NCC(N)=O
notes: as for B2

Molecular target: the molecule itself
Test: circular dichroism with thermal melting; peptides in PBS, heated at 95 °C, annealed at 4 °C overnight; [θ]225 followed from 4 to 85 °C; chains of one peptide forming a triple helix

Protein	binding result
B1	binds
B2	binds
B3	binds
B4	binds
B5	binds
B6	binds
B7	binds
B8	binds
